Measured values from patent US20150315606.

Columns and labels:
[1] = molecular target: T1, synthetic fluorogenic EPF1 peptide
T1 chain: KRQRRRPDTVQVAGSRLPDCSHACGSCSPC

[2] = molecular target: T2, synthetic EPF2 peptide (synEPF2), 30 AA partial EPF2 peptide spanning the predicted cleavage site, Dabcyl-SKNGGVEMEMYPTGSSLPDCSYACGACSPC-Glu(EDANS)
T2 chain: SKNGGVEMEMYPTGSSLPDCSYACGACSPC

B1: SDD1 protease, STREPII tagged, synthesized in the SP6-TNT wheat germ system (protein)
chain: MEPKPFFLCIIFLLFCSSSSEILQKQTYIVQLHPNSETAKTFASKFDWHLSFLQEAVLGVEEEEEEPSSRLLYSYGSAIEGFAAQLTESEAEILRYSPEVVAVRPDHVLQVQTTYSYKFLGLDGFGNSGVWSKSRFGQGTIIGVLDTGVWPESPSFDDTGMPSIPRKWKGICQEGESFSSSSCNRKLIGARFFIRGHRVANSPEESPNMPREYISARDSTGHGTHTASTVGGSSVSMANVLGNGAGVARGMAPGAHIAVYKVCWFNGCYSSDILAAIDVAIQDKVDVLSLSLGGFPIPLYDDTIAIGTFRAMERGISVICAAGNNGPIESSVANTAPWVSTIGAGTLDRRFPAVVRLANGKLLYGESLYPGKGIKNAGREVEVIYVTGGDKGSEFCLRGSLPREEIRGKMVICDRGVNGRSEKGEAVKEAGGVAMILANTEINQEEDSIDVHLLPATLIGYTESVLLKAYVNATVKPKARIIFGGTVIGRSRAPEVAQFSARGPSLANPSILKPDMIAPGVNIIAAWPQNLGPTGLPYDSRRVNFTVMSGTSMSCPHVSGITALIRSAYPNWSPAAIKSALMTTADLYDRQGKAIKDGNKPAGVFAIGAGHVNPQKAINPGLVYNIQPVDYITYLCTLGFTRSDILAITHKNVSCNGILRKNPGFSLNYPSIAVIFKRGKTTEMITRRVTNVGSPNSIYSVNVKAPEGIKVIVNPKRLVFKHVDQTLSYRVWFVLKKKNRGGKVASFAQGQLTWVNSHNLMQRVRSPISVTLKTN
- synthetic peptide and protease fluorogenic cleavage assay [1]: EPF1 cleavage by both SDD1 and CRSP shows low affinity

B2: CO2-regulated secreted subtilisin-like serine protease (CRSP), STREP II-tagged, synthesized in vitro in the wheat germ system (protein)
chain: MKGITFFTPFLSFLYLLCILFMTETEAGSRNGDGVYIVYMGSASSAANANRAQILINTMFKRRANDLLHTYKHGFSGFAARLTAEEAKVIAKKPGVVSVFPDPHFQLHTTHSWDFLKYQTSVKVDSGPPSSASDGSYDSIVGILDTGIWPESESFNDKDMGPIPSRWKGTCMEAKDFKSSNCNRKIIGARYYKNPDDDSEYYTTRDVIGHGSHVSSTIAGSAVENASYYGVASGTAKGGSQNARIAMYKVCNPGGCTGSSILAAFDDAIADGVDVLSLSLGAPAYARIDLNTDPIAIGAFHAVEQGILVICSAGNDGPDGGTVTNTAPWIMTVAANTIDRDFESDVVLGGNKVIKGEGIHFSNVSKSPVYPLIHGKSAKSADASEGSARACDSDSLDQEKVKGKIVLCENVGGSYYASSARDEVKSKGGTGCVFVDDRTRAVASAYGSFPTTVIDSKEAAEIFSYLNSTKDPVATILPTATVEKFTPAPAVAYFSSRGPSSLTRSILKPDITAPGVSILAAWTGNDSSISLEGKPASQYNVISGTSMAAPHVSAVASLIKSQHPTWGPSAIRSAIMTTATQTNNDKGLITTETGATATPYDSGAGELSSTASMQPGLVYETTETDYLNFLCYYGYNVTTIKAMSKAFPENFTCPADSNLDLISTINYPSIGISGFKGNGSKTVTRTVTNVGEDGEAVYTVSVETPPGFNIQVTPEKLQFTKDGEKLTYQVIVSATASLKQDVFGALTWSNAKYKVRSPIVISSESSRTN
- MALDI-TOF-MS hits of cleavage fragment SKNGGVEMEMYPTGS (SEQ ID NO:131) [2]: (5 hits)
- MALDI-TOF-MS hits of cleavage fragment SKNGGVEMEMYPTGSSL (SEQ ID NO:130) [2]: (3 hits)
- MALDI-TOF-MS hits of cleavage fragment SKNGGVEMEMYPTGSSLPD (SEQ ID NO:129) [2]: (14 hits)
- MALDI-TOF-MS hits of the uncleaved 30 aa peptide [2]: The 30 aa, full length, uncleaved peptide was also seen (14 hits)
- synthetic peptide and protease fluorogenic cleavage assay [2]: EPF2 cleavage sample traces indicate that EPF2 cleavage by CRSP could be specific (compared with SDD1)
- synthetic peptide and protease fluorogenic cleavage assay [1]: EPF1 cleavage by both SDD1 and CRSP shows low affinity
